One assay has as its target T1, VanR˜P-PVanH complex (Enterococcus faecium, UniProt Q06239).
T1 construct: GST (N, cleaved yes); made in house; host or cells: E. coli BL21 lambda DE3 (pGEX-2TK); phosphorylated with lithium acetyl phosphate
The experiment in a line: Gel shift analysis of VanR˜P binding to PVanH DNA. The format is biochemical. On the procedure:
(§1) Amplification and 5′-End-Labeling of PVanH DNA. A 254 bp DNA fragment containing the PVanH promoter region (residues −191 to 63) was obtained by PCR as described by T. Holman et al., 33 Biochem. 4625-4631 (1994) using a boiled cell preparation of En. faecium A634 as the template source. Amplified PVanH promoter DNA was 5′-end-labeled with [γ-32 P]ATP (specific activity of […]) and phage T4 polynucleotide kinase. The reaction mixture was incubated for 30 minutes at 37° C., and unincorporated ATP was removed by centrifugal gel filtration (Sephadex G-50 spin column, Amersham Pharmacia Biotech).
Phosphorylation of VanR with Acetyl Phosphate. VanR was phosphorylated as described previously in T. Holman et al., 33 Biochem. 4625-4631 (1994). The reaction was performed in a total volume of 100 μL which contained 50 mM HEPES (pH 7.2), 5 mM MgCl2, 50 mM lithium acetyl phosphate, and 9 μM VanR. […]
Gel Shift Analysis of VanR ˜P Binding to PVanH DNA. VanR-PVanH complexes were quantified by gel shift analysis as described by T. Holman et al., 33 Biochem. 4625-4631 (1994). […]
To start the reaction, ^32P-labeled PVanH promoter probe DNA (0.65 ng in 1 μL) was added, and the reaction mixture was incubated on ice for 15 minutes. The resultant VanR˜P-PVanH complexes were analyzed by nondenaturing PAGE. […]
A general note: A gel shift assay detects complexes by their altered migration in electrophoresis.

The next assay addresses T2, VanR-PVanH complex (Enterococcus faecium, UniProt Q06239).
T2 construct: GST (N, cleaved yes); made in house; host or cells: E. coli BL21 lambda DE3 (pGEX-2TK)
In words: Inhibition of the interaction between 32P-labeled PVanH promoter DNA and VanR. The note with it: chemically synthesized peptide in disulfide form; 32P-labeled PVanH DNA segment. The format is biochemical. On the procedure:
as §1
Gel Shift Analysis of VanR ˜P Binding to PVanH DNA. VanR-PVanH complexes were quantified by gel shift analysis as described by T. Holman et al., 33 Biochem. 4625-4631 (1994). Complexes were formed in a total volume of 15 μL which contained 4 pmol of VanR-P, which was preincubated with the appropriate effector peptides (as aqueous solutions) for 10 minutes at room temperature in 20 mM HEPES (pH 7.2), 5 mM MgCl2, 0.1 mM Na2EDTA, 0.5 mM CaCl2, 10% glycerol, and 0.5 μg of salmon sperm DNA.
To start the reaction, ^32P-labeled PVanH promoter probe DNA (0.65 ng in 1 μL) was added, and the reaction mixture was incubated on ice for 15 minutes. The resultant VanR˜P-PVanH complexes were analyzed by nondenaturing PAGE. See generally J. Sambrook et al., Molecular Cloning: A Laboratory Manual, 2nd Ed. […]

The next assay deals with T3, VanR (Enterococcus faecium, UniProt Q06239).
T3 construct: GST (N, cleaved yes); made in house; host or cells: E. coli BL21 lambda DE3 (pGEX-2TK)
In words: Phage ELISA of phage-displayed peptides binding to immobilised VanR. The settings on record: cloned N-terminal regulatory domain of VanR. The protocol:
Phage Display. Phage display was performed using the methods described by A. Sparks et al., Phage Display Of Peptides And Proteins; A Laboratory Manual (1996). Microtiter plate wells were coated with purified VanR and used to select binding phage from a library displaying combinatorial peptides, i.e., 10 random NNK codons followed by a Cys codon, TGC, in the eleventh position (N is A, G, C, or T, and K is G or T). After three rounds of selection, the binding of individual phage clones to the VanR target protein was assessed by phage-ELISA using an anti-M13 phage monoclonal antibody-horseradish peroxidase conjugate (Pharmacia). Ninety-six phage plaques were picked from the third round of selection and tested for their ability to bind to VanR and to BSA, by phage ELISA, to determine levels of specific and background binding, respectively.
For inserting determinants for desired peptide sequences into phage M13 DNA, oligonucleotides encoding the defined peptide sequences were cloned into the XhoI and XbaI sites within gene III of bacteriophage M13. The resulting recombinant phage were then tested for binding to various protein targets, immobilized within microtiter plate wells, by phage ELISA. […]
Sequence Analysis of Combinatorial Peptides. […] The deduced peptide sequences were further analyzed by alignment with the amino acid sequence of VanS using the program MultAlin. […]
A general note: ELISA stands for enzyme-linked immunosorbent assay.

Assay [1] has as its target T4, phosphoryl transfer from P˜VanS to PhoB (Escherichia coli, UniProt P0AFJ5).
T4 construct: GST (N, cleaved yes); made in house; host or cells: E. coli BL21 lambda DE3 (pGEX-2TK)
In words: Phosphotransferase assay, phosphoryl transfer from P˜VanS to PhoB. The format is biochemical. The settings on record: peptide at 1 mM. The protocol: Phosphotransferase Assay. VanSc-GST (4 pmol) was labeled for 60 minutes at room temperature in a 5 μL volume containing, 50 mM Tris-HCl (pH 7.4), 5 mM MgCl2, and 100 mM KCl. The reaction was initiated by addition of 1 μL of 200 μM [γ-^32P]ATP which contained 1 μCi. After 60 minutes, the 5 μL reaction mixture was added to a 15 μL reaction mixture containing 80 pmol of PhoB and 2.5 mM PMSF all in the same buffer, with the appropriate peptide at a final concentration of 1 mM. Reactions were stopped by the addition of 10 μL of SDS gel loading buffer, and the resultant mixture was fractionated by SDS-PAGE. Phosphoproteins were assessed autoradiographically with a phosphorimager, as previously described.

This note sets out measurements from patent US6824994B2, “Peptide ligands that mimic sensor kinases and inhibit response regulators” (priority 2000, dated 2004).

Entries after “also recorded” stand apart in the source; their conditions may differ.

T1 sequence (Q06239 whole entry, one chain of several): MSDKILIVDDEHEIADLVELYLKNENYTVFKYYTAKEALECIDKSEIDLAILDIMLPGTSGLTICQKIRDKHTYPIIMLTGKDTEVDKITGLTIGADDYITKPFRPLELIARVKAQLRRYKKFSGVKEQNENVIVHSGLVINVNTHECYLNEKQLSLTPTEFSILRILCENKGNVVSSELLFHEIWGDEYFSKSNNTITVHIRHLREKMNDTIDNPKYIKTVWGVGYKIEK
T3 sequence (Q06239 whole entry): as the sequence (Q06239 whole entry, one chain of several) above
T2 sequence (Q06239 whole entry, one chain of several): as above
T4 sequence (P0AFJ5 whole entry): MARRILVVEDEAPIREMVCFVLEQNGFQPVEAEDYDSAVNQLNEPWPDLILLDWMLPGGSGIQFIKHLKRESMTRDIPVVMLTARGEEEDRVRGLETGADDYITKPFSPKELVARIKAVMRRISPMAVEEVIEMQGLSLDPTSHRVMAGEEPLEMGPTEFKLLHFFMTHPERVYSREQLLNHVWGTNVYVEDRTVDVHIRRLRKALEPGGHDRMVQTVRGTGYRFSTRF

Take “SEQ ID NO. 1: dodecamer peptide selected from a combinatorial phage-display library for binding to VanR; contains two Cys residues (SLCHDSVIGWEC)”: in the assay with VanR˜P-PVanH complex, the “inhibition of the binding of VanR˜P to DNA segment of cognate promoter PVanH” value is reported as “found to inhibit the binding of VanR˜P”. Moreover, the “inhibition of the interaction between VanR and PVanH” value with VanR-PVanH complex was “inhibited the interaction between VanR and PVanH”. Also, the “binding to the regulatory domain of VanR” value with VanR is recorded as “localized to the N-terminal, regulatory domain of VanR; also recorded: bound reproducibly to the cloned regulatory domain of VanR preferentially”.
As for “SEQ ID NO. 2: modified peptide derived from SEQ ID NO. 1, more closely resembling VanS; the two Cys replaced with Ala and Ser (SLAHDSIIGYLS)”, the “inhibition of the binding of VanR˜P to DNA segment of cognate promoter PVanH” value in the assay with VanR˜P-PVanH complex is recorded as “found to inhibit the binding of VanR˜P”. Also, in assay [1], the “inhibition of phosphoryl transfer from VanS˜P to PhoB” value is “inhibited phosphoryl transfer”.
